What was measured:
[1] = target: T1, end-3 (F58E10.5) (Caenorhabditis elegans) (UniProt Q9XUW7)
T1 sequence: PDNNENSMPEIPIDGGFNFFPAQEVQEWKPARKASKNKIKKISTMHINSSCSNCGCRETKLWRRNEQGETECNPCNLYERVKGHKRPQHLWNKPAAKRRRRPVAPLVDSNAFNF

[2] = target: T2, elt-6 (F52C12.5) (Caenorhabditis elegans) (UniProt G5EGN3)
T2 sequence: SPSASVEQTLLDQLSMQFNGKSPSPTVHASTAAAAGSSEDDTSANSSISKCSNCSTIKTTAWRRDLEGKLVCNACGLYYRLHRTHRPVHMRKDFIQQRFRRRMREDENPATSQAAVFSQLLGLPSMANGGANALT

[3] = target: T3, C27D6.4 (C27D6.4) (Caenorhabditis elegans) (UniProt Q4JFH9)
T3 sequence: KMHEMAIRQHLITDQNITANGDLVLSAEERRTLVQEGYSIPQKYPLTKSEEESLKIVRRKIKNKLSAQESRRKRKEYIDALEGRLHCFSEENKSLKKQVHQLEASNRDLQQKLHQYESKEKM

[4] = target: T4, atf-6 (F45E6.2) (Caenorhabditis elegans) (UniProt Q20435)
T4 sequence: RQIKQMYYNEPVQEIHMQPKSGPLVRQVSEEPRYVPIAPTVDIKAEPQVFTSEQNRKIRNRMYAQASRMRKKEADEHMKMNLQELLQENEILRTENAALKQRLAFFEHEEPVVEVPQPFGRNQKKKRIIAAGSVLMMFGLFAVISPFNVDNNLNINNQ

[5] = target: T5, efl-2 (Y48C3A.17) (Caenorhabditis elegans) (UniProt A5HWA8)
T5 sequence: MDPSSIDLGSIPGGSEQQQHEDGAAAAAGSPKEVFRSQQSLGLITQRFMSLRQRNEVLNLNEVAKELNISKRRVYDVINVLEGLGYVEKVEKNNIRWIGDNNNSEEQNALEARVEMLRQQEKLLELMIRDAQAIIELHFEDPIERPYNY

[6] = target: T6, end-1 (F58E10.2) (Caenorhabditis elegans) (UniProt G5EDN4)
T6 sequence: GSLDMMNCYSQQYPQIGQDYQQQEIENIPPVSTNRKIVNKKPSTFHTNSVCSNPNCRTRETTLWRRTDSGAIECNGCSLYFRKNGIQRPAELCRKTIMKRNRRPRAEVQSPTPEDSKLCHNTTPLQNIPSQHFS

[7] = target: T7, fkh-9 (K03C7.2) (Caenorhabditis elegans) (UniProt Q21187)
T7 sequence: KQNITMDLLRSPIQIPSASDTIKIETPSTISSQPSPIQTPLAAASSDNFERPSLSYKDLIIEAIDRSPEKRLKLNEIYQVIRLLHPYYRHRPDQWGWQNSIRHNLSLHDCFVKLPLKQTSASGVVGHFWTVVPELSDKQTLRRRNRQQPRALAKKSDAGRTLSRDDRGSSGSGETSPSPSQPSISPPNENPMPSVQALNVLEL

[8] = target: T8, mab-3 (Y53C12B.5) (Caenorhabditis elegans) (UniProt O18214)
T8 sequence: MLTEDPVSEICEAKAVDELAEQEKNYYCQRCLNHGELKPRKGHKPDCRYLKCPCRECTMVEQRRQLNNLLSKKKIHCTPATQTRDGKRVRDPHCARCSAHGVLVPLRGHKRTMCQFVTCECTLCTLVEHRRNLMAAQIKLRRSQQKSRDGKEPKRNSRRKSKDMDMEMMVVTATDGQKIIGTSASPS

[9] = target: T9, T22H9.4 (T22H9.4) (Caenorhabditis elegans) (UniProt Q9TXN8)
T9 sequence: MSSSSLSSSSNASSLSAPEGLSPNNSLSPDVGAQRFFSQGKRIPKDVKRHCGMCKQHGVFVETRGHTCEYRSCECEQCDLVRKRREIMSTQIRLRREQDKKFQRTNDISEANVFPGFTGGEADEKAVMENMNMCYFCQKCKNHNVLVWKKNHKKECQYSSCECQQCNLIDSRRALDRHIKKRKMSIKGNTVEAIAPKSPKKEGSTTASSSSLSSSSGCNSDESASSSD

With “AGATAACA (double strand) [8-mer AGATAACA]” the binding signal (PBM E-score (-0.5 to 0.5)) [1] was 0.488.

“AGATAAGC (double strand) [8-mer AGATAAGC]” gave a binding signal (PBM E-score (-0.5 to 0.5)) [1] of 0.493.

With “AGATAACG (double strand) [8-mer AGATAACG]” the binding signal (PBM E-score (-0.5 to 0.5)) [1] was 0.49.

For “TCTTATCA (double strand) [8-mer TCTTATCA]”, the binding signal (PBM E-score (-0.5 to 0.5)) [2] was 0.495 and the binding signal (PBM E-score (-0.5 to 0.5)) [1] was 0.491.

With “GGAGATAA (double strand) [8-mer GGAGATAA]” the binding signal (PBM E-score (-0.5 to 0.5)) [1] was 0.49.

Work on “GCCACGTA (double strand) [8-mer GCCACGTA]” yielded a binding signal (PBM E-score (-0.5 to 0.5)) [3] of 0.497 and a binding signal (PBM E-score (-0.5 to 0.5)) [4] of 0.48.

“ATGCGCGC (double strand) [8-mer ATGCGCGC]” gave a binding signal (PBM E-score (-0.5 to 0.5)) [5] of 0.485.

“CCGATAAG (double strand) [8-mer CCGATAAG]” gave a binding signal (PBM E-score (-0.5 to 0.5)) [6] of 0.486.

With “AATAACAA (double strand) [8-mer AATAACAA]” the binding signal (PBM E-score (-0.5 to 0.5)) [7] was 0.494.

Sequence “CTTATCTC (double strand) [8-mer CTTATCTC]” has a binding signal (PBM E-score (-0.5 to 0.5)) [1] of 0.496.

In the case of “GTGATAAA (double strand) [8-mer GTGATAAA]”, the binding signal (PBM E-score (-0.5 to 0.5)) [2] is reported as 0.491.

“GATAAGAA (double strand) [8-mer GATAAGAA]” was tested, and the binding signal (PBM E-score (-0.5 to 0.5)) [1] was 0.488.

In the case of “CAGATAAG (double strand) [8-mer CAGATAAG]”, the binding signal (PBM E-score (-0.5 to 0.5)) [1] is reported as 0.491.

Work on “AGATAAGG (double strand) [8-mer AGATAAGG]” yielded a binding signal (PBM E-score (-0.5 to 0.5)) [1] of 0.496 and a binding signal (PBM E-score (-0.5 to 0.5)) [6] of 0.484.

In the case of “GAAAACAA (double strand) [8-mer GAAAACAA]”, the binding signal (PBM E-score (-0.5 to 0.5)) [7] is reported as 0.489.

“CAATAACA (double strand) [8-mer CAATAACA]” was tested, and the binding signal (PBM E-score (-0.5 to 0.5)) [7] was 0.488.

Sequence “GTTGCAAC (double strand) [8-mer GTTGCAAC]” has a binding signal (PBM E-score (-0.5 to 0.5)) [8] of 0.479 and a binding signal (PBM E-score (-0.5 to 0.5)) [9] of 0.489.

With “AGTGATAA (double strand) [8-mer AGTGATAA]” the binding signal (PBM E-score (-0.5 to 0.5)) [2] was 0.495.

“GCGCGCGA (double strand) [8-mer GCGCGCGA]” was tested, and the binding signal (PBM E-score (-0.5 to 0.5)) [5] was 0.485.

Sequence “ACGTCAGA (double strand) [8-mer ACGTCAGA]” has a binding signal (PBM E-score (-0.5 to 0.5)) [4] of 0.476.

In the case of “TAAAAACA (double strand) [8-mer TAAAAACA]”, the binding signal (PBM E-score (-0.5 to 0.5)) [7] is reported as 0.485.

In the case of “GCGCGCAC (double strand) [8-mer GCGCGCAC]”, the binding signal (PBM E-score (-0.5 to 0.5)) [5] is reported as 0.487.

With “CACGTCAG (double strand) [8-mer CACGTCAG]” the binding signal (PBM E-score (-0.5 to 0.5)) [4] was 0.473.

“ACCACGTA (double strand) [8-mer ACCACGTA]” showed a binding signal (PBM E-score (-0.5 to 0.5)) [4] of 0.457.

Work on “ACGCAACA (double strand) [8-mer ACGCAACA]” yielded a binding signal (PBM E-score (-0.5 to 0.5)) [8] of 0.484.

Sequence “CGATATCG (double strand) [8-mer CGATATCG]” has a binding signal (PBM E-score (-0.5 to 0.5)) [6] of 0.496.

With “CCGCAACA (double strand) [8-mer CCGCAACA]” the binding signal (PBM E-score (-0.5 to 0.5)) [8] was 0.482.

Sequence “CGATAAGA (double strand) [8-mer CGATAAGA]” has a binding signal (PBM E-score (-0.5 to 0.5)) [6] of 0.487.

“GATGTTGC (double strand) [8-mer GATGTTGC]” gave a binding signal (PBM E-score (-0.5 to 0.5)) [8] of 0.495.

With “CGCGCGCC (double strand) [8-mer CGCGCGCC]” the binding signal (PBM E-score (-0.5 to 0.5)) [5] was 0.488.

“CTTATCAC (double strand) [8-mer CTTATCAC]” was tested, and the binding signal (PBM E-score (-0.5 to 0.5)) [2] was 0.496.

“TCAAAACA (double strand) [8-mer TCAAAACA]” gave a binding signal (PBM E-score (-0.5 to 0.5)) [7] of 0.491.

“AGCGCGCC (double strand) [8-mer AGCGCGCC]” showed a binding signal (PBM E-score (-0.5 to 0.5)) [5] of 0.488.

Work on “GGTGATAA (double strand) [8-mer GGTGATAA]” yielded a binding signal (PBM E-score (-0.5 to 0.5)) [2] of 0.494.
